Assay results published in IntAct's records for PubMed 9845368.

B1: Phytochrome B (Arabidopsis thaliana (Mouse-ear cress)), P14713 (parent)
chain: MVSGVGGSGGGRGGGRGGEEEPSSSHTPNNRRGGEQAQSSGTKSLRPRSNTESMSKAIQQYTVDARLHAVFEQSGESGKSFDYSQSLKTTTYGSSVPEQQITAYLSRIQRGGYIQPFGCMIAVDESSFRIIGYSENAREMLGIMPQSVPTLEKPEILAMGTDVRSLFTSSSSILLERAFVAREITLLNPVWIHSKNTGKPFYAILHRIDVGVVIDLEPARTEDPALSIAGAVQSQKLAVRAISQLQALPGGDIKLLCDTVVESVRDLTGYDRVMVYKFHEDEHGEVVAESKRDDLEPYIGLHYPATDIPQASRFLFKQNRVRMIVDCNATPVLVVQDDRLTQSMCLVGSTLRAPHGCHSQYMANMGSIASLAMAVIINGNEDDGSNVASGRSSMRLWGLVVCHHTSSRCIPFPLRYACEFLMQAFGLQLNMELQLALQMSEKRVLRTQTLLCDMLLRDSPAGIVTQSPSIMDLVKCDGAAFLYHGKYYPLGVAPSEVQIKDVVEWLLANHADSTGLSTDSLGDAGYPGAAALGDAVCGMAVAYITKRDFLFWFRSHTAKEIKWGGAKHHPEDKDDGQRMHPRSSFQAFLEVVKSRSQPWETAEMDAIHSLQLILRDSFKESEAAMNSKVVDGVVQPCRDMAGEQGIDELGAVAREMVRLIETATVPIFAVDAGGCINGWNAKIAELTGLSVEEAMGKSLVSDLIYKENEATVNKLLSRALRGDEEKNVEVKLKTFSPELQGKAVFVVVNACSSKDYLNNIVGVCFVGQDVTSQKIVMDKFINIQGDYKAIVHSPNPLIPPIFAADENTCCLEWNMAMEKLTGWSRSEVIGKMIVGEVFGSCCMLKGPDALTKFMIVLHNAIGGQDTDKFPFPFFDRNGKFVQALLTANKRVSLEGKVIGAFCFLQIPSPELQQALAVQRRQDTECFTKAKELAYICQVIKNPLSGMRFANSLLEATDLNEDQKQLLETSVSCEKQISRIVGDMDLESIEDGSFVLKREEFFLGSVINAIVSQAMFLLRDRGLQLIRDIPEEIKSIEVFGDQIRIQQLLAEFLLSIIRYAPSQEWVEIHLSQLSKQMADGFAAIRTEFRMACPGEGLPPELVRDMFHSSRWTSPEGLGLSVCRKILKLMNGEVQYIRESERSYFLIILELPVPRKRPLSTASGSGDMMLMMPY
partner: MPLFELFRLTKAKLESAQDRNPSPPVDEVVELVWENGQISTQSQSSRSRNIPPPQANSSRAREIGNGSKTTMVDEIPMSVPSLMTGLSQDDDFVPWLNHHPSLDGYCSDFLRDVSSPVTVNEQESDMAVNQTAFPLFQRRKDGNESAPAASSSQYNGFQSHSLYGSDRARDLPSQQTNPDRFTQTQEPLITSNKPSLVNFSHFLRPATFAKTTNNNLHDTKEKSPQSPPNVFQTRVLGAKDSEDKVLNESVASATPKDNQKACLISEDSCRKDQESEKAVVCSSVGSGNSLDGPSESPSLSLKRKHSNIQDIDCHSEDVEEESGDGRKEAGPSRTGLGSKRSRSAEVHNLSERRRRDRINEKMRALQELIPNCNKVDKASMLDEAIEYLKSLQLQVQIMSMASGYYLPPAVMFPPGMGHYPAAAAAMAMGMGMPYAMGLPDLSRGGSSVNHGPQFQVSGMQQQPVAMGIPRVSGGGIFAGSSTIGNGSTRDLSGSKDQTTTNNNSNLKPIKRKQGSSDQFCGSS
B2: Phytochrome B (Oryza sativa subsp. japonica (Rice)), Q10MG9 (parent)
chain: MASGSRATPTRSPSSARPAAPRHQHHHSQSSGGSTSRAGGGGGGGGGGGGGAAAAESVSKAVAQYTLDARLHAVFEQSGASGRSFDYTQSLRASPTPSSEQQIAAYLSRIQRGGHIQPFGCTLAVADDSSFRLLAYSENTADLLDLSPHHSVPSLDSSAVPPPVSLGADARLLFAPSSAVLLERAFAAREISLLNPLWIHSRVSSKPFYAILHRIDVGVVIDLEPARTEDPALSIAGAVQSQKLAVRAISRLQALPGGDVKLLCDTVVEYVRELTGYDRVMVYRFHEDEHGEVVAESRRNNLEPYIGLHYPATDIPQASRFLFRQNRVRMIADCHAAPVRVIQDPALTQPLCLVGSTLRSPHGCHAQYMANMGSIASLVMAVIISSGGDDDHNISRGSIPSAMKLWGLVVCHHTSPRCIPFPLRYACEFLMQAFGLQLNMELQLAHQLSEKHILRTQTLLCDMLLRDSPTGIVTQSPSIMDLVKCDGAALYYHGKYYPLGVTPTEVQIKDIIEWLTMCHGDSTGLSTDSLADAGYPGAAALGDAVSGMAVAYITPSDYLFWFRSHTAKEIKWGGAKHHPEDKDDGQRMHPRSSFKAFLEVVKSRSLPWENAEMDAIHSLQLILRDSFRDSAEGTSNSKAIVNGQVQLGELELRGIDELSSVAREMVRLIETATVPIFAVDTDGCINGWNAKVAELTGLSVEEAMGKSLVNDLIFKESEETVNKLLSRALRGDEDKNVEIKLKTFGPEQSKGPIFVIVNACSSRDYTKNIVGVCFVGQDVTGQKVVMDKFINIQGDYKAIVHNPNPLIPPIFASDENTCCSEWNTAMEKLTGWSRGEVVGKLLVGEVFGNCCRLKGPDALTKFMIVLHNAIGGQDCEKFPFSFFDKNGKYVQALLTANTRSRMDGEAIGAFCFLQIASPELQQAFEIQRHHEKKCYARMKELAYIYQEIKNPLNGIRFTNSLLEMTDLKDDQRQFLETSTACEKQMSKIVKDASLQSIEDGSLVLEKGEFSLGSVMNAVVSQVMIQLRERDLQLIRDIPDEIKEASAYGDQYRIQQVLCDFLLSMVRFAPAENGWVEIQVRPNIKQNSDGTDTMLFLFRFACPGEGLPPEIVQDMFSNSRWTTQEGIGLSICRKILKLMGGEVQYIRESERSFFHIVLELPQPQQAASRGTS
partner: B1 partner
B3: Phytochrome A (Arabidopsis thaliana (Mouse-ear cress)), P14712 (parent)
chain: MSGSRPTQSSEGSRRSRHSARIIAQTTVDAKLHADFEESGSSFDYSTSVRVTGPVVENQPPRSDKVTTTYLHHIQKGKLIQPFGCLLALDEKTFKVIAYSENASELLTMASHAVPSVGEHPVLGIGTDIRSLFTAPSASALQKALGFGDVSLLNPILVHCRTSAKPFYAIIHRVTGSIIIDFEPVKPYEVPMTAAGALQSYKLAAKAITRLQSLPSGSMERLCDTMVQEVFELTGYDRVMAYKFHEDDHGEVVSEVTKPGLEPYLGLHYPATDIPQAARFLFMKNKVRMIVDCNAKHARVLQDEKLSFDLTLCGSTLRAPHSCHLQYMANMDSIASLVMAVVVNEEDGEGDAPDATTQPQKRKRLWGLVVCHNTTPRFVPFPLRYACEFLAQVFAIHVNKEVELDNQMVEKNILRTQTLLCDMLMRDAPLGIVSQSPNIMDLVKCDGAALLYKDKIWKLGTTPSEFHLQEIASWLCEYHMDSTGLSTDSLHDAGFPRALSLGDSVCGMAAVRISSKDMIFWFRSHTAGEVRWGGAKHDPDDRDDARRMHPRSSFKAFLEVVKTRSLPWKDYEMDAIHSLQLILRNAFKDSETTDVNTKVIYSKLNDLKIDGIQELEAVTSEMVRLIETATVPILAVDSDGLVNGWNTKIAELTGLSVDEAIGKHFLTLVEDSSVEIVKRMLENALEGTEEQNVQFEIKTHLSRADAGPISLVVNACASRDLHENVVGVCFVAHDLTGQKTVMDKFTRIEGDYKAIIQNPNPLIPPIFGTDEFGWCTEWNPAMSKLTGLKREEVIDKMLLGEVFGTQKSCCRLKNQEAFVNLGIVLNNAVTSQDPEKVSFAFFTRGGKYVECLLCVSKKLDREGVVTGVFCFLQLASHELQQALHVQRLAERTAVKRLKALAYIKRQIRNPLSGIMFTRKMIEGTELGPEQRRILQTSALCQKQLSKILDDSDLESIIEGCLDLEMKEFTLNEVLTASTSQVMMKSNGKSVRITNETGEEVMSDTLYGDSIRLQQVLADFMLMAVNFTPSGGQLTVSASLRKDQLGRSVHLANLEIRLTHTGAGIPEFLLNQMFGTEEDVSEEGLSLMVSRKLVKLMNGDVQYLRQAGKSSFIITAELAAANK
partner: B1 partner

Variants of: B1
Settings: with pif3_arath PIF3, O80536

| Variant | effect of a mutation on the interaction |
| --- | --- |
| A750V | decreasing interaction |
| E812K | decreasing interaction |

Variants of: B2
Settings: with pif3_arath PIF3, O80536

| Variant | effect of a mutation on the interaction |
| --- | --- |
| A759V | decreasing interaction |
| E821K | decreasing interaction |

Variants of: B3
Settings: with pif3_arath PIF3, O80536

| Variant | effect of a mutation on the interaction |
| --- | --- |
| A715V | decreasing interaction |
| G787E | decreasing interaction |
